Experimental data reported in the supplement of paper PMC9112550, “Optimization of the antimicrobial peptide Bac7 by deep mutational scanning” (BMC Biology, 2022).

test system: Escherichia coli TOP10; assay: shrunken log2 fold change of peptide-encoding DNA abundance (4.5 h post-induction vs induction); higher = less antimicrobial activity (less host growth inhibition); settings: time post-induction: 4.5 h; library: site-saturation at positions 5, 18, 19, 20
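Note: peptides expressed intracellularly from a pBAD plasmid library in pooled LB shake-flask culture, induced with 0.3% L-arabinose, DNA abundance read by NGS, three biological replicates, DESeq2 with apeglm shrinkage.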

Row | Sequence | shrunken log2 fold change
1 | RRIRGRPPRLPRPRPRPLIDPRP | 1.36
2 | RRIRWRPPRLPRPRPRPALPPRP | 0.374
3 | RRIRPRPPRLPRPRPRPREVPRP | 0.419
4 | RRIRWRPPRLPRPRPRPQPKPRP | 0.294
5 | RRIRCRPPRLPRPRPRPCTKPRP | -0.507
6 | RRIRHRPPRLPRPRPRPLQYPRP | -0.582
7 | RRIRMRPPRLPRPRPRPINIPRP | -0.0393
8 | RRIRFRPPRLPRPRPRPTRCPRP | 0.299
9 | RRIRERPPRLPRPRPRPPTAPRP | 0.0872
10 | RRIRCRPPRLPRPRPRPGWQPRP | 0.331
11 | RRIRHRPPRLPRPRPRPDHIPRP | -0.336
12 | RRIRLRPPRLPRPRPRPGFFPRP | 0.0646
13 | RRIRRRPPRLPRPRPRPIGPPRP | 0.147
14 | RRIRERPPRLPRPRPRPGKPPRP | 0.231
15 | RRIRTRPPRLPRPRPRPMWLPRP | -0.0194
16 | RRIRSRPPRLPRPRPRPARNPRP | 0.611
17 | RRIRIRPPRLPRPRPRPEDQPRP | -0.000348
18 | RRIRCRPPRLPRPRPRPQDQPRP | -0.101
19 | RRIRWRPPRLPRPRPRPVFMPRP | -0.0684
20 | RRIRHRPPRLPRPRPRPWTGPRP | -0.104
21 | RRIRFRPPRLPRPRPRPYNRPRP | -0.262
22 | RRIRMRPPRLPRPRPRPPCTPRP | 0.738
23 | RRIRNRPPRLPRPRPRPDIPPRP | -0.588
24 | RRIRGRPPRLPRPRPRPKHCPRP | 0.216
25 | RRIRQRPPRLPRPRPRPIWVPRP | -0.344

Row | Sequence | shrunken log2 fold change
26 | RRIRGRPPRLPRPRPRPLPMPRP | 0.666
27 | RRIRYRPPRLPRPRPRPGLNPRP | -0.489
28 | RRIRPRPPRLPRPRPRPVSIPRP | -0.271
29 | RRIRCRPPRLPRPRPRPQTMPRP | -0.349
30 | RRIRSRPPRLPRPRPRPQIPPRP | -0.538
31 | RRIRVRPPRLPRPRPRPGTVPRP | 0.421
32 | RRIRIRPPRLPRPRPRPTQRPRP | 0.187
33 | RRIRERPPRLPRPRPRPQHQPRP | -0.15
34 | RRIRVRPPRLPRPRPRPCMNPRP | -0.31
35 | RRIRFRPPRLPRPRPRPMYVPRP | -1.63
36 | RRIRSRPPRLPRPRPRPEATPRP | 0.72
37 | RRIRQRPPRLPRPRPRPAIYPRP | -0.0621
38 | RRIRGRPPRLPRPRPRPQQGPRP | 0.0431
39 | RRIRTRPPRLPRPRPRPHEFPRP | -0.175
40 | RRIRHRPPRLPRPRPRPQGTPRP | -0.284
41 | RRIRPRPPRLPRPRPRPQWCPRP | -0.0525
42 | RRIRKRPPRLPRPRPRPGGPPRP | 0.453
43 | RRIRLRPPRLPRPRPRPQRYPRP | -0.307
44 | RRIRWRPPRLPRPRPRPLEFPRP | 0.0696
45 | RRIRRRPPRLPRPRPRPYQHPRP | -0.983
46 | RRIRKRPPRLPRPRPRPDRDPRP | 0.00592
47 | RRIRARPPRLPRPRPRPKPKPRP | 0.936
48 | RRIRRRPPRLPRPRPRPRYFPRP | 0.502
49 | RRIRERPPRLPRPRPRPPIDPRP | 0.0361
50 | RRIRNRPPRLPRPRPRPINPPRP | -0.796

Row | Sequence | shrunken log2 fold change
51 | RRIRQRPPRLPRPRPRPLMEPRP | -0.17
52 | RRIRWRPPRLPRPRPRPMFWPRP | 0.324
53 | RRIRHRPPRLPRPRPRPEISPRP | 0.0458
54 | RRIRMRPPRLPRPRPRPIEHPRP | -0.0129
55 | RRIRKRPPRLPRPRPRPNVAPRP | 0.387
56 | RRIRGRPPRLPRPRPRPLMYPRP | -0.00226
57 | RRIRTRPPRLPRPRPRPSCYPRP | -0.654
58 | RRIRKRPPRLPRPRPRPCWLPRP | 0.246
59 | RRIRDRPPRLPRPRPRPYNHPRP | -0.704
60 | RRIRCRPPRLPRPRPRPSHIPRP | -0.637
61 | RRIRSRPPRLPRPRPRPGMGPRP | 0.0599
62 | RRIRKRPPRLPRPRPRPNMEPRP | -0.0503
63 | RRIRSRPPRLPRPRPRPFYSPRP | -0.131
64 | RRIRWRPPRLPRPRPRPKNQPRP | 0.123
65 | RRIRTRPPRLPRPRPRPAVAPRP | 0.422
66 | RRIRQRPPRLPRPRPRPKVEPRP | -0.00957
67 | RRIRKRPPRLPRPRPRPNMAPRP | 0.00469
68 | RRIRVRPPRLPRPRPRPCTVPRP | -0.14
69 | RRIRKRPPRLPRPRPRPYMLPRP | -0.579
70 | RRIRHRPPRLPRPRPRPPGKPRP | -0.155
71 | RRIRGRPPRLPRPRPRPRNQPRP | 0.402
72 | RRIRVRPPRLPRPRPRPEEFPRP | -0.034
73 | RRIRYRPPRLPRPRPRPVYQPRP | -0.341
74 | RRIRHRPPRLPRPRPRPIDAPRP | -0.105
75 | RRIRWRPPRLPRPRPRPVAIPRP | -0.0829

Row | Sequence | shrunken log2 fold change
76 | RRIRQRPPRLPRPRPRPFQYPRP | -0.306
77 | RRIRDRPPRLPRPRPRPCCLPRP | -0.146
78 | RRIRDRPPRLPRPRPRPFFFPRP | 0.483
79 | RRIRWRPPRLPRPRPRPHNWPRP | 0.0898
80 | RRIRPRPPRLPRPRPRPLYEPRP | -0.303
81 | RRIRKRPPRLPRPRPRPCSEPRP | 0.296
82 | RRIRHRPPRLPRPRPRPWYDPRP | 0.0351
83 | RRIRTRPPRLPRPRPRPHRWPRP | -0.254
84 | RRIRYRPPRLPRPRPRPKMIPRP | -0.537
85 | RRIRFRPPRLPRPRPRPRWNPRP | 0.00853
86 | RRIRNRPPRLPRPRPRPENPPRP | 0.0192
87 | RRIRWRPPRLPRPRPRPYPKPRP | 0.11
88 | RRIRQRPPRLPRPRPRPTHRPRP | -0.000309
89 | RRIRLRPPRLPRPRPRPLIKPRP | -0.273
90 | RRIRCRPPRLPRPRPRPWKQPRP | -0.181
91 | RRIRIRPPRLPRPRPRPRTWPRP | -0.0123
92 | RRIRQRPPRLPRPRPRPWKYPRP | -0.149
93 | RRIRSRPPRLPRPRPRPQIVPRP | -0.32
94 | RRIRTRPPRLPRPRPRPGWDPRP | 0.129
95 | RRIRDRPPRLPRPRPRPSSKPRP | -0.0562
96 | RRIRIRPPRLPRPRPRPANMPRP | -0.45
97 | RRIRDRPPRLPRPRPRPHWTPRP | -0.179
98 | RRIRHRPPRLPRPRPRPVDQPRP | 0.00586
99 | RRIRLRPPRLPRPRPRPIIDPRP | -0.256
100 | RRIRGRPPRLPRPRPRPVVGPRP | 0.735

Row | Sequence | shrunken log2 fold change
101 | RRIRDRPPRLPRPRPRPVYDPRP | -0.434
102 | RRIRNRPPRLPRPRPRPFSNPRP | -0.214
103 | RRIRHRPPRLPRPRPRPALIPRP | 0.0852
104 | RRIRCRPPRLPRPRPRPCFMPRP | -0.416
105 | RRIRMRPPRLPRPRPRPSYLPRP | -0.336
106 | RRIRCRPPRLPRPRPRPINIPRP | -0.702
107 | RRIRTRPPRLPRPRPRPISYPRP | 0.061
108 | RRIRARPPRLPRPRPRPERAPRP | 0.845
109 | RRIRHRPPRLPRPRPRPWDEPRP | -0.175
110 | RRIRARPPRLPRPRPRPQLWPRP | 0.569
111 | RRIRERPPRLPRPRPRPKCLPRP | -0.0209
112 | RRIRWRPPRLPRPRPRPYREPRP | -0.773
113 | RRIRQRPPRLPRPRPRPEHWPRP | 0.0788
114 | RRIRLRPPRLPRPRPRPQFWPRP | 0.099
115 | RRIRERPPRLPRPRPRPNRDPRP | -0.192
116 | RRIRVRPPRLPRPRPRPTVCPRP | 0.518
117 | RRIRIRPPRLPRPRPRPVSEPRP | -0.164
118 | RRIRVRPPRLPRPRPRPQELPRP | -0.0343
119 | RRIRIRPPRLPRPRPRPGVNPRP | -0.319
120 | RRIRHRPPRLPRPRPRPHNCPRP | -0.0289
121 | RRIRPRPPRLPRPRPRPRMFPRP | 0.0598
122 | RRIRVRPPRLPRPRPRPNCFPRP | -0.158
123 | RRIRYRPPRLPRPRPRPSHPPRP | -0.639
124 | RRIRMRPPRLPRPRPRPTCTPRP | 0.963
125 | RRIRARPPRLPRPRPRPIYCPRP | 0.241

Row | Sequence | shrunken log2 fold change
126 | RRIRVRPPRLPRPRPRPIELPRP | -0.167
127 | RRIRRRPPRLPRPRPRPQFCPRP | -0.0309
128 | RRIRLRPPRLPRPRPRPSFKPRP | -0.572
129 | RRIRFRPPRLPRPRPRPFSFPRP | -0.499
130 | RRIRRRPPRLPRPRPRPCRRPRP | 0.0946
131 | RRIRDRPPRLPRPRPRPRAFPRP | -0.2
132 | RRIRYRPPRLPRPRPRPTSWPRP | -0.138
133 | RRIRLRPPRLPRPRPRPAACPRP | 0.267
134 | RRIRPRPPRLPRPRPRPKHCPRP | -0.0919
135 | RRIRPRPPRLPRPRPRPLVCPRP | 0.272
136 | RRIRGRPPRLPRPRPRPCECPRP | -0.0257
137 | RRIRIRPPRLPRPRPRPPTSPRP | -0.172
138 | RRIRIRPPRLPRPRPRPIRMPRP | -0.346
139 | RRIRIRPPRLPRPRPRPSNVPRP | -0.683
140 | RRIRWRPPRLPRPRPRPRWQPRP | -0.0189
141 | RRIRFRPPRLPRPRPRPIPYPRP | -0.102
142 | RRIRLRPPRLPRPRPRPWKIPRP | 0.095
143 | RRIRARPPRLPRPRPRPTVKPRP | 0.143
144 | RRIRKRPPRLPRPRPRPRKIPRP | 0.968
145 | RRIRIRPPRLPRPRPRPCFLPRP | -0.544
146 | RRIRQRPPRLPRPRPRPCGEPRP | -0.0396
147 | RRIRQRPPRLPRPRPRPNTWPRP | -0.191
148 | RRIRVRPPRLPRPRPRPNSSPRP | -0.0634
149 | RRIRWRPPRLPRPRPRPFMAPRP | -0.121
150 | RRIRGRPPRLPRPRPRPAMKPRP | 0.311
